# Measured values: patent US9757468B2, “Intranasal administration of guanidinylated aminoglycosides” (The Regents of the University of California, priority 2013, dated 2017)
# Where two headings read alike, the source gives them in different places.
# B1: IDUA: recombinant enzyme iduronidase (Aldurazyme), not conjugated to guanidinoneomycin (protein, UniProt P35475 28-653, looked up)
# Alpha-L-iduronidase: APHLVHVDAARALWPLRRFWRSTGFCPPLPHSQADQYVLSWDQQLNLAYVGAVPHRGIKQVRTHWLLELVTTRGSTGRGLSYNFTHLDGYLDLLRENQLLPGFELMGSASGHFTDFEDKQQVFEWKDLVSSLARRYIGRYGLAHVSKWNFETWNEPDHHDFDNVSMTMQGFLNYYDACSEGLRAASPALRLGGPGDSFHTPPRSPLSWGLLRHCHDGTNFFTGEAGVRLDYISLHRKGARSSISILEQEKVVAQQIRQLFPKFADTPIYNDEADPLVGWSLPQPWRADVTYAAMVVKVIAQHQNLLLANTTSAFPYALLSNDNAFLSYHPHPFAQRTLTARFQVNNTRPPHVQLLRKPVLTAMGLLALLDEEQLWAEVSQAGTVLDSNHTVGVLASAHRPQGPADAWRAAVLIYASDDTRAHPNRSVAVTLRLRGVPPGPGLVYVTRYLDNGLCSPDGEWRRLGRPVFPTAEQFRRMRAAEDPVAAAPRPLPAGGRLTLRPALRLPSLLLVHVCARPEKPPGQVTRLRALPLTQGQLVLVWSDEHVGSKCLWTYEIQFSQDGKAYTPVSRKPSTFNLFVFSPDTGAVSGSYRVRALDYWARPGPFSDPVPYLEVPVPRGPPSPGNP
# B2: GNeo-AP-IDUA: iduronidase (Aldurazyme) treated with alkaline phosphatase to remove mannose-6-phosphate groups, then conjugated to guanidinoneomycin via GNeo-NHS (conjugate, UniProt P35475 28-653, looked up)
# Alpha-L-iduronidase: APHLVHVDAARALWPLRRFWRSTGFCPPLPHSQADQYVLSWDQQLNLAYVGAVPHRGIKQVRTHWLLELVTTRGSTGRGLSYNFTHLDGYLDLLRENQLLPGFELMGSASGHFTDFEDKQQVFEWKDLVSSLARRYIGRYGLAHVSKWNFETWNEPDHHDFDNVSMTMQGFLNYYDACSEGLRAASPALRLGGPGDSFHTPPRSPLSWGLLRHCHDGTNFFTGEAGVRLDYISLHRKGARSSISILEQEKVVAQQIRQLFPKFADTPIYNDEADPLVGWSLPQPWRADVTYAAMVVKVIAQHQNLLLANTTSAFPYALLSNDNAFLSYHPHPFAQRTLTARFQVNNTRPPHVQLLRKPVLTAMGLLALLDEEQLWAEVSQAGTVLDSNHTVGVLASAHRPQGPADAWRAAVLIYASDDTRAHPNRSVAVTLRLRGVPPGPGLVYVTRYLDNGLCSPDGEWRRLGRPVFPTAEQFRRMRAAEDPVAAAPRPLPAGGRLTLRPALRLPSLLLVHVCARPEKPPGQVTRLRALPLTQGQLVLVWSDEHVGSKCLWTYEIQFSQDGKAYTPVSRKPSTFNLFVFSPDTGAVSGSYRVRALDYWARPGPFSDPVPYLEVPVPRGPPSPGNP
# modifications: guanidinoneomycin conjugate; alkaline phosphatase modified
# B3: AP-IDUA: iduronidase modified with alkaline phosphatase only, not conjugated to GNeo (protein, UniProt P35475 28-653, looked up)
# Alpha-L-iduronidase: APHLVHVDAARALWPLRRFWRSTGFCPPLPHSQADQYVLSWDQQLNLAYVGAVPHRGIKQVRTHWLLELVTTRGSTGRGLSYNFTHLDGYLDLLRENQLLPGFELMGSASGHFTDFEDKQQVFEWKDLVSSLARRYIGRYGLAHVSKWNFETWNEPDHHDFDNVSMTMQGFLNYYDACSEGLRAASPALRLGGPGDSFHTPPRSPLSWGLLRHCHDGTNFFTGEAGVRLDYISLHRKGARSSISILEQEKVVAQQIRQLFPKFADTPIYNDEADPLVGWSLPQPWRADVTYAAMVVKVIAQHQNLLLANTTSAFPYALLSNDNAFLSYHPHPFAQRTLTARFQVNNTRPPHVQLLRKPVLTAMGLLALLDEEQLWAEVSQAGTVLDSNHTVGVLASAHRPQGPADAWRAAVLIYASDDTRAHPNRSVAVTLRLRGVPPGPGLVYVTRYLDNGLCSPDGEWRRLGRPVFPTAEQFRRMRAAEDPVAAAPRPLPAGGRLTLRPALRLPSLLLVHVCARPEKPPGQVTRLRALPLTQGQLVLVWSDEHVGSKCLWTYEIQFSQDGKAYTPVSRKPSTFNLFVFSPDTGAVSGSYRVRALDYWARPGPFSDPVPYLEVPVPRGPPSPGNP
# modifications: alkaline phosphatase modified
# B4: GNeo-SGSH: Sulfamidase (SGSH) conjugated to guanidinoneomycin (conjugate, UniProt P51688 21-502, looked up)
# N-sulphoglucosamine …: RPRNALLLLADDGGFESGAYNNSAIATPHLDALARRSLLFRNAFTSVSSCSPSRASLLTGLPQHQNGMYGLHQDVHHFNSFDKVRSLPLLLSQAGVRTGIIGKKHVGPETVYPFDFAYTEENGSVLQVGRNITRIKLLVRKFLQTQDDRPFFLYVAFHDPHRCGHSQPQYGTFCEKFGNGESGMGRIPDWTPQAYDPLDVLVPYFVPNTPAARADLAAQYTTVGRMDQGVGLVLQELRDAGVLNDTLVIFTSDNGIPFPSGRTNLYWPGTAEPLLVSSPEHPKRWGQVSEAYVSLLDLTPTILDWFSIPYPSYAIFGSKTIHLTGRSLLPALEAEPLWATVFGSQSHHEVTMSYPMRSVQHRHFRLVHNLNFKMPFPIDQDFYVSPTFQDLLNRTTAGQPTGWYKDLRHYYYRARWELYDRSRDPHETQNLATDPRFAQLLEMLRDQLAKWQWETHDPWVCAPDGVLEEKLSPQCQPLHNEL
# modifications: guanidinoneomycin conjugate
# B5: SGSH: Sulfamidase with mannose-6-phosphate terminated glycans, not conjugated to guanidinoneomycin (protein, UniProt P51688 21-502, looked up)
# N-sulphoglucosamine …: RPRNALLLLADDGGFESGAYNNSAIATPHLDALARRSLLFRNAFTSVSSCSPSRASLLTGLPQHQNGMYGLHQDVHHFNSFDKVRSLPLLLSQAGVRTGIIGKKHVGPETVYPFDFAYTEENGSVLQVGRNITRIKLLVRKFLQTQDDRPFFLYVAFHDPHRCGHSQPQYGTFCEKFGNGESGMGRIPDWTPQAYDPLDVLVPYFVPNTPAARADLAAQYTTVGRMDQGVGLVLQELRDAGVLNDTLVIFTSDNGIPFPSGRTNLYWPGTAEPLLVSSPEHPKRWGQVSEAYVSLLDLTPTILDWFSIPYPSYAIFGSKTIHLTGRSLLPALEAEPLWATVFGSQSHHEVTMSYPMRSVQHRHFRLVHNLNFKMPFPIDQDFYVSPTFQDLLNRTTAGQPTGWYKDLRHYYYRARWELYDRSRDPHETQNLATDPRFAQLLEMLRDQLAKWQWETHDPWVCAPDGVLEEKLSPQCQPLHNEL
# How the values were obtained:
# [1] = test system: α-iduronidase-deficient mice (Idua−/−; Homozygote); test: Brain enzyme activity one hour after intranasal administration of forms of iduronidase; conditions: 2 mg/kg, FIG. 1
# brain = conditions: in vivo; cited from earlier work
# [2] = test system: mouse model of mucopolysaccharidosis (MPS) type I; test: Reduction of brain glycosaminoglycans by intranasal treatment (carbazole assay); type: in vivo; conditions: intranasal 1 mg/kg every other day for two weeks, MPS I mice, *p<0.05, FIG. 3
# Protocol: A mouse model of mucopolysaccharidosis (MPS) type I, which is null for the lysosomal enzyme, α-L-iduronidase (IDUA), was used to measure the amount of glycosaminoglycans in the brain following intranasal administration of 1 mg/kg IDUA or GNeo-AP-IDUA every other day for two weeks. Quantification of glycoaminoglycan was performed using the carbazole assay. […] Data are represented as mean±SD (n=5 or 6). One-way analysis of variance (ANOVA) with Tukey's post-hoc analysis for comparison was applied for data analysis (*p<0.05).
# [3] = test system: α-iduronidase-deficient mice (Idua−/−; Homozygote); conditions: mouse, in vivo, 2 mg/kg
# [4] = test system: α-iduronidase-deficient mice (Idua−/−; Homozygote); conditions: mouse, in vivo
# Protocol: One hour following administration the mice were sacrificed and their brains were removed and dissected to isolate tissue from the olfactory bulb, the cerebral cortex, and “other parts of the brain.” The total amount of tissue protein recovered from these various portions was ˜1 mg, ˜25 mg, and ˜50 mg, respectively. The various tissues were then assayed for IDUA activity, which was expressed relative to the wet weight of each part of brain.
# [5] = test system: sulfamidase deficient mice (Sgsh−/−); test: Brain enzyme activity one hour after intranasal administration of sulfamidase forms; conditions: 2 mg/kg, FIG. 4
# [6] = test system: sulfamidase deficient mice (Sgsh−/−); conditions: mouse, in vivo, 2 mg/kg
molecule,measurement,setting,value
B1,enzyme activity in brain extracts (uptake into the brain),[1],not taken up efficiently
same,levels of enzyme in the brain after intranasal delivery,brain,extremely low
B2,total GAG level in the mouse brain compared with untreated mouse brains,[2],significantly decreased
same,enzyme activity in brain extracts (uptake into the brain),[3],significantly more enzymatic activity
same,dose at which uptake into the olfactory bulb (OB) and cerebral cortex (CC) saturated,[4],~1 mg/kg
same,"enzyme concentration in the OB versus the CC, based on enzyme specific activity (nmols/hr/mg of tissue protein)",[4],much greater than in the CC
same,share of the administered dose in Other parts of the Brain,[4],~64%
same,share of the administered dose in the CC,[4],~23%
same,share of the administered dose in the OB,[4],~13%
B3,enzyme activity in brain extracts (uptake into the brain),[1],does not appear to facilitate efficient transport into the brain
B4,enzyme activity in brain extracts (uptake into the brain),[5]; one hour after administration,rapid uptake into the brain
same,level of activity in the olfactory bulb of brain versus wildtype animals,[5]; one hour,exceeded that found in wildtype animals
B5,enzyme activity in brain extracts (uptake into the brain),[6],not taken up efficiently
